T1: human OX40 (human, UniProt P43489 29-277)
T1 construct: whole, on cells; also called hOX40
T1 sequence (looked up): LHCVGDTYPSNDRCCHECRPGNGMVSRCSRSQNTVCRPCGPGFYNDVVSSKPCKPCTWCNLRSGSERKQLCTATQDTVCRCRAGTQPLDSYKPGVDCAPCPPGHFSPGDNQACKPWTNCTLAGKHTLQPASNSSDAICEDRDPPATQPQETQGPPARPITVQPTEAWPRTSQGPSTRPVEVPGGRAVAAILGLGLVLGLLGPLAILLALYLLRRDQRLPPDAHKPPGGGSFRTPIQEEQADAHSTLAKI


Assays:
cynomolgus monkey OX40 [1] = molecular target: T2, cynomolgus monkey OX40 (cynomolgus monkey); experiment: flow cytometry on cOX40-Jurkat-NF-κB cells, as in Example 16
T2 construct: whole, on cells; also called cOX40; cynomolgus OX40
Description: (§1) Stained hOX40-Jurkat-NF-κB and cOX40-Jurkat-NF-κB cells were analyzed by flow cytometry using a CytoFLEX (Beckman Coulter), the results of which are depicted in FIGS. 78 and 79, respectively, and summarized in FIG. 80.
(§2) Sequences for the VH and VL domains of an additional anti-human OX40 antibody (clone 41) are provided in FIG. 112 (SEQ ID NOs: 170 and 171, respectively). To investigate whether clone 41 would be suitable for use within IL-12 ABD fusion proteins, this antibody was recombinantly expressed in bivalent human IgG1 format (termed ‘hG1-clone 41’) and subjected to protein A purification. […] Next, hG1-clone 41 was assessed for its capacity to block the binding of OX40L to hOX40-Jurkat-NF-κB cells, as described in Example 19. […] The capacity of hG1-clone 41 to block OX40L-induced signaling in hOX40-Jurkat-NF-κB cells was also assessed using a similar experimental setup as described in Example 20, the results of which are depicted in FIG. 117. […] Finally, the capacity of hG1-clone 41 to trigger OX40 signaling was assessed in hOX40-Jurkat-NF-κB cells, as described in Example 25.

human OX40 [2] = molecular target: T1, human OX40; experiment: flow cytometry on hOX40-Jurkat-NF-κB cells, as in Example 16
Description: as §1, §2

cynomolgus monkey OX40 [3] = molecular target: T2, cynomolgus monkey OX40; experiment: flow cytometry on cOX40-Jurkat-NF-κB cells
human OX40 [4] = molecular target: T1, human OX40; experiment: flow cytometry, monovalent fusion protein on hOX40-Jurkat-NF-κB cells
human OX40 [5] = molecular target: T1, human OX40; experiment: flow cytometry on hOX40-Jurkat-NF-κB cells
Description: as §1
Binding of each of the sequence optimized IL-12 ABD fusion proteins to hOX40-Jurkat-NF-κB cells was performed as described in Example 16, the results of which are depicted in FIG. 87 and summarized in FIG. 88.

human OX40 [6] = molecular target: T1, human OX40; experiment: competition, flow cytometry: inhibition of 2.5 nM A647-labelled OX40L-Fc binding to hOX40-Jurkat-NF-κB cells
Description: To investigate whether any of BGB-A445, 20E5, or 12H3 competed with OX40L for the OX40 binding site, we assessed the capacity of these clones, either in traditional IgG1 monospecific, bivalent mAb format or as bispecific, monovalent IL-12 ABD fusion proteins, to block binding of OX40L to hOX40-Jurkat-NF-κB cells. For the experiment, 30,000 hOX40-Jurkat-NF-κB cells were pre-incubated with 0-450 nM mAb or IL-12 ABD fusion protein for 10 minutes on ice prior to being stained for an additional 10 minutes on ice with 2.5 nM OX40L-Fc (Sino Biological, catalogue number 13127-H01H) that had been coupled to an A647 fluorophore using a Zenon Human IgG labelling kit (Invitrogen, catalogue number Z25408). Stained hOX40-Jurkat-NF-κB cells were analyzed by flow cytometry, and are depicted as percentage of OX40L-Fc positive cells within the OX40 positive gate (defined using a non-competing anti-OX40 mAb (clone Ber-ACT35, BioLegend catalogue number 350012) in FIG. 89.

| EC50 (cynomolgus monkey OX40 [1]) [nM] | EC50 (human OX40 [2]) [nM] | fold difference of EC50 against hOX40-Jurkat-NF-κB cells (cynomolgus monkey OX40 [3]) [fold] | binding result (human OX40 [4]) | EC50 (human OX40 [5]) [nM] | IC50 (human OX40 [6]) [nM] | Binder |
| --- | --- | --- | --- | --- | --- | --- |
| 1 | 1.1 | – | – | – | – | hG1-clone 41 (antibody, V domains shown, Recombinantly expressed in bivalent human IgG1 format) VH: QVQLVESGGGVVQPGRSLRLSCAASGFTFSSYGMHWVRQAPGKGLEWVALISYDGSNKIYTDSVKGRFTISRDNSKNTLYLQMNSLRPEDTAVYYCAKGREIVATYFDYWGQGTLVTVSS VL: not shown |
| – | – | ≤ 2 | binds | – | – | mono-mut23-20E5 (Fc fusion, Monovalent for OX40) IWELKKDVYVVELDWYPDAPGEMVVLTCDTPEEDGITWTLDQSSEVLGSGKTLTIQVKEFGDAGQYTCHKGGEVLSHSLLLLHKKEDGIWSTDILKDQKEPKNKTFLRCEAKNYSGRFTCWWLTTISTDLTFSVKSSRGSSDPQGVTCGAATLSAERVRGDNKEYEYSVECQEDSACPAAEESLPIEVMVDAVHKLKYENYTSSFFIRDIIKPDPPKNLQLKPLKNSRQVEVSWEYPDTWSTPHSYFSLTFSVQVQGKSKREKKDRVFTDKTSATVICRKNASISVRAQDRYYSSSWSEWASVPCSGGGGSGGGGSGGGGSGGGGSGGGGSRNLPVATPDPGMFPCLHHSQNLLRAVSNMLQKARQTLEFSPCTSEEIDHEDITKDKTSTVEACLPLELTKNESCLNSRETSFITNGSCLASRKTSFMMALCLSSIYEDLKMYQVEFKTMNAKLLMDPKRQIFLDQNMLAVIDELMQALNFNSETVPQKSSLEEPDFYKTAIKLCILLHAFRIRAVTIDRVMSYLNASGGGGSGGGGSEPKSSDKTHTCPPCPAPEFEGGPSVFLFPPKPKDTLMISRTPEVTCVVVDVSHEDPEVKFNWYVDGVEVHNAKTKPREEQYNSTYRVVSVLTVLHQDWLNGKEYKCKVSNKALPASIEKTISKAKGQPREPQVCTLPPSRDELTKNQVSLSCAVKGFYPSDIAVEWESNGQPENNYKTTPPVLDSDGSFFLVSKLTVDKSRWQQGNVFSCSVMHEALHNHYTQKSLSLSPG heavy: QVQLVQSGAEVKKPGASVKVSCKASGYTFTSYVMHWVRQAPGQRLEWIGYINPYNDGTKYNEKFKGRATLTSDKSASTAYMELSSLRSEDTAVYYCANYYGSSLSMDYWGQGTLVTVSSASTKGPSVFPLAPSSKSTSGGTAALGCLVKDYFPEPVTVSWNSGALTSGVHTFPAVLQSSGLYSLSSVVTVPSSSLGTQTYICNVNHKPSNTKVDKKVEPKSCDKTHTCPPCPAPEFEGGPSVFLFPPKPKDTLMISRTPEVTCVVVDVSHEDPEVKFNWYVDGVEVHNAKTKPREEQYNSTYRVVSVLTVLHQDWLNGKEYKCKVSNKALPASIEKTISKAKGQPREPQVYTLPPCRDELTKNQVSLWCLVKGFYPSDIAVEWESNGQPENNYKTTPPVLDSDGSFFLYSKLTVDKSRWQQGNVFSCSVMHEALHNHYTQKSLSLSPG light: not shown |
| – | – | ≤ 2 | – | 13.6 | 227 | mono-mut23-12H3 (Fc fusion, Monovalent for OX40) IWELKKDVYVVELDWYPDAPGEMVVLTCDTPEEDGITWTLDQSSEVLGSGKTLTIQVKEFGDAGQYTCHKGGEVLSHSLLLLHKKEDGIWSTDILKDQKEPKNKTFLRCEAKNYSGRFTCWWLTTISTDLTFSVKSSRGSSDPQGVTCGAATLSAERVRGDNKEYEYSVECQEDSACPAAEESLPIEVMVDAVHKLKYENYTSSFFIRDIIKPDPPKNLQLKPLKNSRQVEVSWEYPDTWSTPHSYFSLTFSVQVQGKSKREKKDRVFTDKTSATVICRKNASISVRAQDRYYSSSWSEWASVPCSGGGGSGGGGSGGGGSGGGGSGGGGSRNLPVATPDPGMFPCLHHSQNLLRAVSNMLQKARQTLEFSPCTSEEIDHEDITKDKTSTVEACLPLELTKNESCLNSRETSFITNGSCLASRKTSFMMALCLSSIYEDLKMYQVEFKTMNAKLLMDPKRQIFLDQNMLAVIDELMQALNFNSETVPQKSSLEEPDFYKTAIKLCILLHAFRIRAVTIDRVMSYLNASGGGGSGGGGSEPKSSDKTHTCPPCPAPEFEGGPSVFLFPPKPKDTLMISRTPEVTCVVVDVSHEDPEVKFNWYVDGVEVHNAKTKPREEQYNSTYRVVSVLTVLHQDWLNGKEYKCKVSNKALPASIEKTISKAKGQPREPQVCTLPPSRDELTKNQVSLSCAVKGFYPSDIAVEWESNGQPENNYKTTPPVLDSDGSFFLVSKLTVDKSRWQQGNVFSCSVMHEALHNHYTQKSLSLSPG heavy: QVQLVQSGAEVKKPGSSVKVSCKASGYTFKDYTMHWVRQAPGQGLEWIGGIYPNNGGSTYNQNFKDRVTLTADKSTSTAYMELSSLRSEDTAVYYCARMGYHGPHLDFDVWGQGTTVTVSSASTKGPSVFPLAPSSKSTSGGTAALGCLVKDYFPEPVTVSWNSGALTSGVHTFPAVLQSSGLYSLSSVVTVPSSSLGTQTYICNVNHKPSNTKVDKKVEPKSCDKTHTCPPCPAPEFEGGPSVFLFPPKPKDTLMISRTPEVTCVVVDVSHEDPEVKFNWYVDGVEVHNAKTKPREEQYNSTYRVVSVLTVLHQDWLNGKEYKCKVSNKALPASIEKTISKAKGQPREPQVYTLPPCRDELTKNQVSLWCLVKGFYPSDIAVEWESNGQPENNYKTTPPVLDSDGSFFLYSKLTVDKSRWQQGNVFSCSVMHEALHNHYTQKSLSLSPG light: DIQMTQSPSSLSASVGDRVTITCKASQDVGAAVAWYQQKPGKAPKLLIYWASTRHTGVPSRFSGSGSGTDFTLTISSLQPEDFATYYCQQYINYPLTFGGGTKVEIKRTVAAPSVFIFPPSDEQLKSGTASVVCLLNNFYPREAKVQWKVDNALQSGNSQESVTEQDSKDSTYSLSSTLTLSKADYEKHKVYACEVTHQGLSSPVTKSFNRGEC |
